Test results from the Human Domainome abundance scans (Beltran et al. 2025).
± gives the uncertainty stated by the source.

Assay: abundance fitness (aPCA) (normalised: wild type 0, dead -1); higher = more abundant; growth selection in yeast, the domain comes from the species named
Conditions: Homo sapiens
Work on “BAG family molecular chaperone regulator 3 L22Q, O95817” yielded an abundance fitness of -0.226 ± 0.095. In the case of “BAG family molecular chaperone regulator 3 L22S, O95817”, the abundance fitness is reported as -0.574 ± 0.11. “BAG family molecular chaperone regulator 3 L22T, O95817” gave an abundance fitness of 0.047 ± 0.17. In the case of “BAG family molecular chaperone regulator 3 L22V, O95817”, the abundance fitness is reported as 0.078 ± 0.068. For “BAG family molecular chaperone regulator 3 L22W, O95817”, the abundance fitness was -0.464 ± 0.083. Substance “BAG family molecular chaperone regulator 3 N16A, O95817” has an abundance fitness of 0.423 ± 0.079. In the case of “BAG family molecular chaperone regulator 3 N16C, O95817”, the abundance fitness is reported as 0.113 ± 0.14. For “BAG family molecular chaperone regulator 3 N16D, O95817”, the abundance fitness was 0.008 ± 0.07. With “BAG family molecular chaperone regulator 3 N16E, O95817” the abundance fitness was 0.658 ± 0.11. Substance “BAG family molecular chaperone regulator 3 N16F, O95817” has an abundance fitness of -0.219 ± 0.24. Work on “BAG family molecular chaperone regulator 3 N16H, O95817” yielded an abundance fitness of 0.094 ± 0.13. For “BAG family molecular chaperone regulator 3 N16I, O95817”, the abundance fitness was 0.113 ± 0.19. Work on “BAG family molecular chaperone regulator 3 N16K, O95817” yielded an abundance fitness of 1.04 ± 0.12. For “BAG family molecular chaperone regulator 3 N16L, O95817”, the abundance fitness was 0.33 ± 0.1. “BAG family molecular chaperone regulator 3 N16M, O95817” gave an abundance fitness of 0.276 ± 0.065. “BAG family molecular chaperone regulator 3 N16P, O95817” gave an abundance fitness of 0.153 ± 0.14. For “BAG family molecular chaperone regulator 3 N16Q, O95817”, the abundance fitness was 0.465 ± 0.17. In the case of “BAG family molecular chaperone regulator 3 N16R, O95817”, the abundance fitness is reported as 0.231 ± 0.065. Work on “BAG family molecular chaperone regulator 3 N16T, O95817” yielded an abundance fitness of 0.666 ± 0.11. “BAG family molecular chaperone regulator 3 N16V, O95817” gave an abundance fitness of 0.368 ± 0.1. “BAG family molecular chaperone regulator 3 N16Y, O95817” gave an abundance fitness of 0.117 ± 0.1. “BAG family molecular chaperone regulator 3 N43A, O95817” gave an abundance fitness of -0.331 ± 0.087. “BAG family molecular chaperone regulator 3 N43C, O95817” showed an abundance fitness of -0.681 ± 0.38. With “BAG family molecular chaperone regulator 3 N43D, O95817” the abundance fitness was -0.622 ± 0.31. Substance “BAG family molecular chaperone regulator 3 N43G, O95817” has an abundance fitness of -0.531 ± 0.14. In the case of “BAG family molecular chaperone regulator 3 N43H, O95817”, the abundance fitness is reported as -0.384 ± 0.38. “BAG family molecular chaperone regulator 3 N43K, O95817” showed an abundance fitness of -0.648 ± 0.24. “BAG family molecular chaperone regulator 3 N43L, O95817” gave an abundance fitness of -0.629 ± 0.12. Work on “BAG family molecular chaperone regulator 3 N43P, O95817” yielded an abundance fitness of -0.42 ± 0.3. In the case of “BAG family molecular chaperone regulator 3 N43Q, O95817”, the abundance fitness is reported as -0.435 ± 0.43. Work on “BAG family molecular chaperone regulator 3 N43R, O95817” yielded an abundance fitness of -0.549 ± 0.12. “BAG family molecular chaperone regulator 3 N43S, O95817” showed an abundance fitness of 0.004 ± 0.2. For “BAG family molecular chaperone regulator 3 N43T, O95817”, the abundance fitness was -0.416 ± 0.085. In the case of “BAG family molecular chaperone regulator 3 N43V, O95817”, the abundance fitness is reported as -0.418 ± 0.12. Substance “BAG family molecular chaperone regulator 3 N43W, O95817” has an abundance fitness of -0.415 ± 0.42. Substance “BAG family molecular chaperone regulator 3 N43Y, O95817” has an abundance fitness of -0.366 ± 0.4. Substance “BAG family molecular chaperone regulator 3 N50A, O95817” has an abundance fitness of 0.249 ± 0.15. In the case of “BAG family molecular chaperone regulator 3 N50C, O95817”, the abundance fitness is reported as 0.032 ± 0.13. Substance “BAG family molecular chaperone regulator 3 N50D, O95817” has an abundance fitness of -0.126 ± 0.2. In the case of “BAG family molecular chaperone regulator 3 N50E, O95817”, the abundance fitness is reported as 0.063 ± 0.096. For “BAG family molecular chaperone regulator 3 N50F, O95817”, the abundance fitness was 0.181 ± 0.11. Substance “BAG family molecular chaperone regulator 3 N50G, O95817” has an abundance fitness of -0.358 ± 0.13. “BAG family molecular chaperone regulator 3 N50H, O95817” gave an abundance fitness of -0.166 ± 0.19. For “BAG family molecular chaperone regulator 3 N50I, O95817”, the abundance fitness was 0.656 ± 0.23. In the case of “BAG family molecular chaperone regulator 3 N50K, O95817”, the abundance fitness is reported as -0.176 ± 0.11. With “BAG family molecular chaperone regulator 3 N50L, O95817” the abundance fitness was -0.181 ± 0.17. For “BAG family molecular chaperone regulator 3 N50M, O95817”, the abundance fitness was -0.255 ± 0.086. “BAG family molecular chaperone regulator 3 N50P, O95817” gave an abundance fitness of -0.353 ± 0.31. In the case of “BAG family molecular chaperone regulator 3 N50Q, O95817”, the abundance fitness is reported as -0.176 ± 0.1. “BAG family molecular chaperone regulator 3 N50R, O95817” showed an abundance fitness of -0.034 ± 0.13. Work on “BAG family molecular chaperone regulator 3 N50S, O95817” yielded an abundance fitness of -0.26 ± 0.085. In the case of “BAG family molecular chaperone regulator 3 N50T, O95817”, the abundance fitness is reported as -0.435 ± 0.11. Substance “BAG family molecular chaperone regulator 3 N50W, O95817” has an abundance fitness of 0.441 ± 0.15. For “BAG family molecular chaperone regulator 3 N50Y, O95817”, the abundance fitness was 0.235 ± 0.16. In the case of “BAG family molecular chaperone regulator 3 P21A, O95817”, the abundance fitness is reported as 0.383 ± 0.085. “BAG family molecular chaperone regulator 3 P21C, O95817” showed an abundance fitness of 0.548 ± 0.1. With “BAG family molecular chaperone regulator 3 P21D, O95817” the abundance fitness was -0.124 ± 0.16. For “BAG family molecular chaperone regulator 3 P21E, O95817”, the abundance fitness was 0.307 ± 0.12. Work on “BAG family molecular chaperone regulator 3 P21F, O95817” yielded an abundance fitness of 0.097 ± 0.21. Work on “BAG family molecular chaperone regulator 3 P21G, O95817” yielded an abundance fitness of 0.43 ± 0.057. For “BAG family molecular chaperone regulator 3 P21H, O95817”, the abundance fitness was -0.103 ± 0.26. “BAG family molecular chaperone regulator 3 P21K, O95817” showed an abundance fitness of 0.439 ± 0.059. Work on “BAG family molecular chaperone regulator 3 P21L, O95817” yielded an abundance fitness of -0.112 ± 0.094. For “BAG family molecular chaperone regulator 3 P21M, O95817”, the abundance fitness was 0.673 ± 0.18. In the case of “BAG family molecular chaperone regulator 3 P21N, O95817”, the abundance fitness is reported as -0.081 ± 0.21. With “BAG family molecular chaperone regulator 3 P21Q, O95817” the abundance fitness was 0.192 ± 0.063. “BAG family molecular chaperone regulator 3 P21R, O95817” showed an abundance fitness of 0.382 ± 0.081. “BAG family molecular chaperone regulator 3 P21S, O95817” showed an abundance fitness of 0.349 ± 0.089. “BAG family molecular chaperone regulator 3 P21V, O95817” showed an abundance fitness of 0.443 ± 0.063. “BAG family molecular chaperone regulator 3 P21W, O95817” gave an abundance fitness of -0.543 ± 0.086. With “BAG family molecular chaperone regulator 3 P21Y, O95817” the abundance fitness was -0.152 ± 0.21. For “BAG family molecular chaperone regulator 3 P23A, O95817”, the abundance fitness was -0.378 ± 0.16. With “BAG family molecular chaperone regulator 3 P23C, O95817” the abundance fitness was -0.932 ± 0.19. In the case of “BAG family molecular chaperone regulator 3 P23E, O95817”, the abundance fitness is reported as -0.544 ± 0.14. “BAG family molecular chaperone regulator 3 P23F, O95817” gave an abundance fitness of -0.697 ± 0.44. “BAG family molecular chaperone regulator 3 P23G, O95817” showed an abundance fitness of -0.622 ± 0.18. With “BAG family molecular chaperone regulator 3 P23H, O95817” the abundance fitness was 0.173 ± 0.23. Work on “BAG family molecular chaperone regulator 3 P23I, O95817” yielded an abundance fitness of -0.612 ± 0.22. “BAG family molecular chaperone regulator 3 P23K, O95817” showed an abundance fitness of -0.604 ± 0.094. Work on “BAG family molecular chaperone regulator 3 P23L, O95817” yielded an abundance fitness of -0.858 ± 0.2. “BAG family molecular chaperone regulator 3 P23M, O95817” gave an abundance fitness of -0.772 ± 0.34. “BAG family molecular chaperone regulator 3 P23Q, O95817” showed an abundance fitness of -0.83 ± 0.33. With “BAG family molecular chaperone regulator 3 P23S, O95817” the abundance fitness was -0.864 ± 0.26. In the case of “BAG family molecular chaperone regulator 3 P23W, O95817”, the abundance fitness is reported as -0.692 ± 0.095. For “BAG family molecular chaperone regulator 3 P23Y, O95817”, the abundance fitness was -0.54 ± 0.29. “BAG family molecular chaperone regulator 3 P24A, O95817” showed an abundance fitness of -0.464 ± 0.096. Substance “BAG family molecular chaperone regulator 3 P24C, O95817” has an abundance fitness of -0.489 ± 0.29. Work on “BAG family molecular chaperone regulator 3 P24D, O95817” yielded an abundance fitness of -0.597 ± 0.36. Work on “BAG family molecular chaperone regulator 3 P24F, O95817” yielded an abundance fitness of -0.383 ± 0.31. With “BAG family molecular chaperone regulator 3 P24G, O95817” the abundance fitness was -0.77 ± 0.22. Substance “BAG family molecular chaperone regulator 3 P24K, O95817” has an abundance fitness of 0.269 ± 0.16.
